According to the nanobody polyreactivity screen of Harvey et al. (2022):

Assay: yeast display, Sf9 membrane polyspecificity reagent, FACS + sequencing; frameworks hold sequencing errors
How it was run: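 Genes from sorted yeast were amplified by colony PCR, read by MiSeq 2 × 250 sequencing and filtered on CDR length. These cells carried a synthetic nanobody library in Saccharomyces cerevisiae BJ5465 and were sorted by FACS into low and high (top ~1%) gates on anti-HA and streptavidin fluorescence. Polyreactivity is labelled according to the gate of origin.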

Row | Sequence | polyreactivity (PSR sort gate)
1 | QVQLVESGGGLVQAGGSLRLSCAASGFIFRYYAMGWYRQAPGKEREFVASINWNGGSTSYADSVKGRFTISRDNAKNTVYLQMNSLKPEDTAVSYCAADFQYAIHTDMDYWGHGTQVTVSS | high polyreactivity
2 | QVQLVESGGGLVQAGGSLRLSCAASGFIFRYYAMGWYRQAPGKERELVAAISKRGGGTYYADSVKGRFTISRDYAKNTVFLQMNSLKPEDTAVYYCAAGPGRGRSTLGSYYWGQGTQVTVTS | high polyreactivity
3 | QVQLVESGGGLVQAGGSLRLSCAASGFIFRYYAMGWYRQAPGKERELVAAISWRGGSTYYADSVKGRFTISRDNAKNTVYLQMNSLKPEDTAVYYCAAERYVDYGYWGQGTQVTVSS | high polyreactivity
4 | QVQLVESGGGLVQAGGSLRLSCAASGFIFRYYAMGWYRQAPGKERELVAAITRSGDNTYYADSVKGRFTISRDNAKNTVYLQMNSLKPEDTAVYYCAARDVQYQQALGGDYWGQGTQVTVSS | low polyreactivity
5 | QVQLVESGGGLVQAGGSLRLSCAASGFIFRYYAMGWYRQAPGKERELVAAITSRGSSTYYADSVKGRFTISRDNAKNTVYLQMNSLKPEDTAVYYCAARLRGDYVRYYYWGQGTQVTVSS | high polyreactivity
6 | QVQLVESGGGLVQAGGSLRLSCAASGFIFRYYAMGWYRQAPGTERELVAAISQSGGSTDYADSVKGRFTISRDTAKNTVYLQMNSLKPVDTAVYYCATRTPYTKRDYWGQGTQVTVSS | high polyreactivity
7 | QVQLVESGGGLVQAGGSLRLSCAASGFIFRYYAMGWYRQATGKEREFVAVISSTTGSTYYADSVKGRFTISRDNAKNTVYLQMNSLKPEDTAVYYCAAASRRRRPLKRMDYWGQGTQVTVSS | low polyreactivity
8 | QVQLVESGGGLVQAGGSLRLSCAASGFIFRYYAMGWYRQEPGKERELFAAISSTGGSTSYADSVKGRFTISRDNAKNTVYLQMNSLKPEDTAVYYCAADYWIRRRTYGQLYRPYYYWGQGTQVTVSS | high polyreactivity
9 | QVQLVESGGGLVQAGGSLRLSCAASGFIFRYYAMRWYRQAPGKERELVATITYGGTSTSYADSVKGRFTISRDNAKNTVYLQMNSLKPEDSAVYYCATDRVSRVRPFWNVWRSNYWGQGTQVTVSS | high polyreactivity
10 | QVQLVESGGGLVQAGGSLRLSCAASGFIFSENAMGLYRPAPGKERELVAAISDAGGSTYYADSVKGRFTISRDNAKNTVYLQMNSLKPEDTAVYYCNAVYHPKGPSGYGYWGQGTQVTVSS | low polyreactivity
11 | QVQLVESGGGLVQAGGSLRLSCAASGFIFSFYVMGWYRQAPGKERELVAAISTSGASTYYADSVKGRFTISRDNAKNTVYLQMTSLKPEDTAVYYCNVVYRYGGYNYWGQGTQVTVSS | high polyreactivity
12 | QVQLVESGGGLVQAGGSLRLSCAASGFIFSIYAMGWYRQAPGKERELVAAISKSGGRTYYADSVKGRFTISRDNAKNTVYLQMNSLKPEDTAVYYCAVDSYYKYDYWGQGTQVTVSS | high polyreactivity
13 | QVQLVESGGGLVQAGGSLRLSCAASGFIFSIYAMGWYRQAPGKERELVAGIDNGGGTYYADSVKGRFTISRDNAKNTVYLQMNSLKPEDTAVYYCAADTYSIGELYDYWGQGTQVTVSS | low polyreactivity
14 | QVQLVESGGGLVQAGGSLRLSCAASGFIFSIYAMGWYRQAPGKERELVAGIDNGGGTYYADSVKGRFTISRDNAKNTVYLQMNSLKPEDTAVYYCDLGSTTMDYWGQGTQVTVSS | low polyreactivity
15 | QVQLVESGGGLVQAGGSLRLSCAASGFIFSLYAMGRYRQATGKERELVAVITWSDGRTYYADSVKGRFTISRDNAKNTVYLQMNSLKPEDTAVYYCAAADWITEYDYWGQGTQVTVSS | low polyreactivity
16 | QVQLVESGGGLVQAGGSLRLSCAASGFIFSLYAMGWYRQAPGKERELVAAISKRGGSTNYADSVKGRFTISRDNAKNNVYLQMNSLKPEDTAVYYCAKARPGFLYDHWGQGTQVTVSS | high polyreactivity
17 | QVQLVESGGGLVQAGGSLRLSCAASGFIFSNNAMGWYRQAPGKERELVAAISGRGGSTYYADSVKGRFTISRDNAKNTVYLQMNSLKPEDTAVYYCNALYTYSYSRFDYWGEGTQVTVSS | low polyreactivity
18 | QVQLVESGGGLVQAGGSLRLSCAASGFIFSNNAMGWYRQAPGKERELVAAISKSGGGTSYADSVKGRFTISRDNAKNTVYLQMKSLNPEDSGVYYCAARFSQFRVDFWGQGTQVTVSS | high polyreactivity
19 | QVQLVESGGGLVQAGGSLRLSCAASGFIFSRNAMGWYRHAPGKERELVAAISLRGGSTYYADSVKGRFTISRDNAKNTVYLQMNSLKPEDTAVYYCAAPLFSGYDYWGQGTQVTVSS | low polyreactivity
20 | QVQLVESGGGLVQAGGSLRLSCAASGFIFSRNAMGWYRQAPGKERELVAAISSGGGTDYADSVKGRFTISRDNAKNTVYLQMNSLQPEDTAVYYCAASYFPGWKHSLDDYWGQGTQVTVSS | low polyreactivity
21 | QVQLVESGGGLVQAGGSLRLSCAASGFIFSRNTMGWYRQAPGKERELVAAISRGGGSTYYADSVKGRFTISRDNAKNTVYLQMNSLKPEDTAVYYCNTRIVAAGRYDYWGQGTQVTVSS | high polyreactivity
22 | QVQLVESGGGLVQAGGSLRLSCAASGFIFSRYAMGWYRQAPGKERELVAAISSRGGSTYYADSVKGRFTISRDNAKNTVYLQMNSLKPEDTAVYYCNVDPRYSLTPPMDYWGQGTQVTVSS | high polyreactivity

Row | Sequence | polyreactivity (PSR sort gate)
23 | QVQLVESGGGLVQAGGSLRLSCAASGFIFSRYTMGWYRQAPGKERELVAAISRRGGNTYYADSVKGRFTISRDNGKNTVYLLMNSLKPEDTAVYYFAADSSYFKDEYWGQGTQVTVSS | low polyreactivity
24 | QVQLVESGGGLVQAGGSLRLSCAASGFIFSRYVMGWYRQAPGKERELVAVISYRGGSTYYADSVKGRFTISRDNAKNTVYVQMNSLKPEDTAVYYCNADTIPDGEDRYDYWGHGTQVTVSS | low polyreactivity
25 | QVQLVESGGGLVQAGGSLRLSCAASGFIFSSYAMGWYRQAPGKEREFVAVISTGGGSTYYADSVKGRFTLSRDNAKNTVYLQMISLKPEDTAVYYCAAKLYDSGGRYWYDYWGQGTQVTVSS | high polyreactivity
26 | QVQLVESGGGLVQAGGSLRLSCAASGFIFSSYAMGWYRQAPGKERELVASTSRRAGRTYYADSVKGRFTISRDNAKNTVYVQMNSLKPEDSAVYYCAAEARVGYHFQILDYWGQGTQVTVSS | high polyreactivity
27 | QVQLVESGGGLVQAGGSLRLSCAASGFIFSTYAMGWYRQAPGKERELVAAITRGGRTYYADSVKGRFTISRDNAKNTVYLQMNSLIPEDTAVYYCAVFVHGDYWGQGTQVTVSS | high polyreactivity
28 | QVQLVESGGGLVQAGGSLRLSCAASGFIFSWYAMGWYRQAPGKERELVAAINWSGDSTYYADSVKGRFTISRDNAKNTVYLQMNSLKPEDTAVYYCAADPSYWGDPYDYWGQGTQVTVSS | high polyreactivity
29 | QVQLVESGGGLVQAGGSLRLSCAASGFIFSWYAMGWYRQAPGKERELVAAITSGGRTNYADSVKGRFTISRDNAKNTVYLQMNSLKPEDTAVYYCAAAFYPFWPRYTSDYWGQGTQVTVSS | high polyreactivity
30 | QVQLVESGGGLVQAGGSLRLSCAASGFIFSYNAMGWYRQAPGKERVLVAAISSRGGSTYYADSVMGRFTISRDNAKNTVYLQMNSLKPEDTGVSYCAVASRRVYTAPYDYWGQGTQVTVSS | high polyreactivity
31 | QVQLVESGGGLVQAGGSLRLSCAASGFIFSYNAMGWYRTAPGTERELDAAISSSGGTTYYADSVKGRFTISRYNAKNTVYLQMNSLKPEDTAVYYCAADGRTYHHLDGGWYRYDYWGQGTQVTVSS | low polyreactivity
32 | QVQLVESGGGLVQAGGSLRLSCAASGFIFSYYAMGWYRQAPGKERELLAAISRNGGRTYYADSVKGRFTISRDNAKNTVYLQMNSLKPEDTAVYYCAATTYRTSSYIRYGSPKHDDYWGQGTQVTVSS | high polyreactivity
33 | QVQLVESGGGLVQAGGSLRLSCAASGFIFSYYAMGWYRQAPGKERELVAAITSGGSTNYADSVKGRFTISRDNAKNTVYLQMNSLKPEDTAVFYCATAGSGGIGLFYSYDYWGQGTQVTVSS | low polyreactivity
34 | QVQLVESGGGLVQAGGSLRLSCAASGFIFSYYAMGWYRQAPGKERELVATITRSGGRTYYADSVKGRFTISRDNAKNTVYLQMNSLKPEDTAVYYCAADYYYKDDSWGQGTQVTVSS | high polyreactivity
35 | QVQLVESGGGLVQAGGSLRLSCAASGFIFSYYVMGWYRQAPGKERELVAGISKRGGSTRYADSVKGRFTISRDNAKNTVYLQMNSLKPEDTAVYYCNRLPYLHFAGRLTNYDYWGQGTQVTVSS | high polyreactivity
36 | QVQLVESGGGLVQAGGSLRLSCAASGFIFTDYAMGWYRQAPGKERELVAAISSGGRTYYADSVKGRFTISRDNAKNTVYLQMNSLKPEDTAVYYCARGGRAEGWGQGTQVTVSS | high polyreactivity
37 | QVQLVESGGGLVQAGGSLRLSCAASGFIFTGNVMGWYRQAPGKEREFVAAISRSGGNTYYADSVKGRFTISRDKAKNTVYLQMNSLKPEDTAVYYCAVPKHFVVSYDYWGQGTQVTVSS | high polyreactivity
38 | QVQLVESGGGLVQAGGSLRLSCAASGFIFTKYVMGWYRQAPGKERELVAAISSGGGRTYYADSVKGRFTISRDNGKYTVYLQMNSQKPEDTAVYYCNIDDERGKLYYWGQGTQVTVSS | high polyreactivity
39 | QVQLVESGGGLVQAGGSLRLSCAASGFIFTLYAMGWYRQAPGKEREFVAAISWSDGSTTYADSVKGRFTISRDNAKNSVYSQMYSLKPEDTAVYYCADVTCSYIRGLVYHFYYWGQGTQVTVSS | low polyreactivity
40 | QVQLVESGGGLVQAGGSLRLSCAASGFIFTLYAMGWYRQAPGKERELVADISFNSGNTYYADSVKGRFTISRDNAKNTVYLQMNSLIPEDTAVYYCAVDLYFVGDVYEGYLGGDYLGQGTQVTVSS | low polyreactivity
41 | QVQLVESGGGLVQAGGSLRLSCAASGFIFTPYTKGWYRQATGKERELVAAITDGSSTYYADSVKGRFTISRDNAKNTVYLQMNSLKPEDTAVYYCNADTLTTTRRFNPYDYWGQGTQVTVSS | low polyreactivity
42 | QVQLVESGGGLVQAGGSLRLSCAASGFIFTQNAMGWYRQAPGKERELVARISRRGGSTYYADSVKGRFTISRDNAKNTVYLQMNSLKPEDTAVYYCAATINYPGPTRFVSGNHDYWGQGTQVTVSS | high polyreactivity
43 | QVQLVESGGGLVQAGGSLRLSCAASGFIFTQYAMGWYRPAPGKEWELVAAITRSGGRTYYADSVKGRFTISRDNAKNTVYIQMNSLKPEDTAVYYCAVDTVTRTVLVYGDRNDSWGQGTQVTVSS | high polyreactivity
